In the supplement of paper PMC12667976:

B1: library; numbered along this chain (parent)
chain: MATDAALRRLLRLHRTEIAVAVDSAFPLLHALADHDVVPEDKFQETLHLKEKEGCPQAFHALLSWLLTQDSTAILDFWRVLFKDYNLERYGRLQPILDSFPKDVDLSQPRKGRKPPAVPKALVPPPRLPTKRKASEEARAAAPAALTPRGTASPGSQLKAKPPKKPESSAEQQRLPLGNGIQTMSASVQRAVAMSSGDVPGARGAVEGILIQQVFESGGSKKCIQVGGEFYTPSKFEDSGSGKNKARSSSGPKPLVRAKGAQGAAPGGGEARLGQQGSVPAPLALPSDPQLHQKNEDECAVCRDGGELICCDGCPRAFHLACLSPPLREIPSGTWRCSSCLQATVQEVQPRAEEPRPQEPPVETPLPPGLRSAGEEVRGPPGEPLAGMDTTLVYKHLPAPPSAAPLPGLDSSALHPLLCVGPEGQQNLAPGARCGVCGDGTDVLRCTHCAAAFHWRCHFPAGTSRPGTGLRCRSCSGDVTPAPVEGVLAPSPARLAPGPAKDDTASHEPALHRDDLESLLSEHTFDGILQWAIQSMARPAAPFPS

Variants of: B1
Test: AIRE transcriptional activation functional score (insulin promoter-GFP; nonsense median 0, synonymous median 1) (normalised score); higher = higher AIRE activity (more reporter activation)
Settings: with insulin promoter-GFP reporter in HEK293
Procedure, shortened: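 Integration of codon-optimized AIRE NNN-codon libraries (three regions) by Bxb1 recombinase was done in Flp-In T-REx HEK293 landing-pad cells containing an insulin core promoter-GFP reporter. Tile-sequencing covered the top 10% GFP cells and the unselected integrants, drawn from mCherry+, BFP− cells sorted at day 7 and grown 7 days. Functional score means the enrichment of a variant in select versus non-select, minus that of wild type. Variants with at least 10 counts per million in non-select were rescaled to nonsense median 0 and synonymous median 1, and the biological replicates were averaged.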

AIRE transcriptional activation functional score of substitutions, site by site:
D503: Y 1.14; T 1.41; E 0.774; G 0.835; L 1; F 0.724; Q 0.845; A 0.958; H 0.851; S 0.908; N 0.852; P 0.73; R 0.543; V 0.937; C 0.896; K 0.372; I 0.789
P499: G 1.31; E 0.508; A 1.22; R 0.761; H 1.16; K 0.747; I 1.18; C 0.764; L 1.11; F 1.11; Y 1.13; Q 1.15; S 1.1; N 0.266; T 1.32; V 1.21; D 0.797; W 1.37
S491: H 1.42; P 1.1; R 0.586; G 0.752; W 1.03; K 0.437; L 0.845; Q 0.998; D 0.749; M 1.31; E 1.06; T 0.571; A 0.995; Y 1.35; V 0.901; C 1.29; F 1.05; I 1.1; N 0.925
R494: A 0.321; T 0.134; L 0.489; E 0.493; C 0.847; G 0.344; F 0.918; I 0.785; K 0.735; M 0.56; Q 0.696; S 0.361; W 1.41; P 0.439; Y 0.846; V 1.27; H 1.7
S506: D 1.11; N 0.728; H 1.08; P 1.11; T 0.197; M 0.671; Q 0.92; A 1.36; Y 1.42; L 0.875; G 0.799; C 1.39; E 0.655; W 0.477; F 0.873; V 0.824; I 1.63; K 0.443; R 0.768
A505: I 1.09; T -0.258; D 0.657; K 0.78; S 0.985; P 1.01; R 0.832; M 0.663; C 0.52; V 0.997; Y 1.59; L 0.848; G 0.337; F 0.703; E 0.669; H -0.421
P492: E 0.938; I 1.13; K 0.595; C 0.756; Q 0.812; G 1.01; S 1.03; M 1.76; A 0.732; L 1.02; V 1.07; F 1.04; W 0.687; R 0.779; H 0.521; Y 0.427; T 1.31; D -0.0101; N 1.18
D502: P 0.765; Y 1.33; T 0.991; A 0.926; G 1.04; M 0.261; V 0.937; N 0.775; Q 0.924; F 1.35; K 0.812; R 0.415; W 1.04; L 0.916; E 0.952; C 0.85; I 1.02; H 1.15; S 0.804
K501: L 0.792; E 0.49; F 1.17; A 0.451; D 0.395; Y 0.863; Q 1.08; C 0.625; V 0.712; S 1.3; I 0.714; P 0.836; R 1.11; T 1.04; W 0.734; N 1.03; G 0.947; M 0.223; H 0.51
A493: W 0.996; S 1.29; C 1.13; M 1.19; Q 0.91; Y 1.13; F 1.17; G 1.15; P 0.631; I 1.04; R 1.15; T 0.878; V 1.1; D 0.802; L 1.09; E 0.985; K 0.774; N 1.04; H 1.46
A496: M 1.5; L 1.15; D 0.267; I 1.04; P 0.91; Y 1.07; G 0.999; E 0.99; S 1.02; N 0.726; R 0.864; Q 1.04; C 1.01; K 0.412; W 1.64; V 0.988; F 1.07; T 0.81; H 1.29
G498: I 0.895; L 1.11; H 1.42; Q 0.969; W 1.45; T 1.09; E 1.1; M 1.24; V 1.36; A 1.09; N 0.869; D 0.318; Y 1.2; C 1.23; S 0.556; R 0.839; K 0.572
L495: V 1.07; Q 0.974; I 1.22; T 0.948; E 1; R 0.848; Y 1.35; A 1.42; C 0.97; H 1.23; K 0.745; G 1.05; P 0.262; D 1.68; S 0.995; F 1.18; M 0.186
E508: I 0.786; F 0.724; A 0.896; C 0.854; G 0.721; N 0.552; L 0.506; K 0.0783; M 0.536
H507: K 0.802; G 0.805; Q 0.898; P 1.02; A 0.96; V 1.12; D 0.604; Y 1.18; L 1.01; C 0.78; F 1.56; S 0.954; T 0.361; R 0.823; I 1.27; N 1.19; M 1.47; E 0.521
P497: M 1.19; K 0.828; L 1.34; Y 1.1; T 1.09; A 1.16; D 0.292; R 0.646; I 1.13; N 1.05; G 1.29; F 1.03; Q 1.02; H 0.871; W 0.669; E 0.495; S 0.852; C 1.28; V 1.19
A500: K 0.785; L 0.907; P 0.844; M 0.733; N 0.646; Q 1.34; F 0.977; T 1.12; S 1.17; G 0.758; E 0.98; R 0.915; W 1.42; Y 0.944; H 1.22; C 1.07; I 1.1; V 1.04; D 1.19
P490: W -0.0714; K 1.17; R 1.07; H 0.603; N 0.697; L 1.12; F 0.986; Q 0.417; G 1.51; T 1.13; S 1.11; V 0.606; D 0.28; C 1.26; M 0.144; I 1.17; E 0.916
T504: C 1.15; A 1.58; E 0.961; R 0.922; Y 1.77; L 0.843; S 1.44; M 0.913; G 0.95; W 1.23; K 0.99; V 0.558; I 1.6; Q 1.7; N 0.713; D 1.79; F 0.918
